The labels stand for the following.
B1: CPEB3 Ribozyme (parent)
chain: GGGGGCCACAGCAGAAGCGUUCACGUCGCGGCCCCUGUCAGAUUCUGGUGAAUCUGCGAAUUCUGCUGU

The data set covers variants of B1. Description: self-cleavage, relative activity (ratio to wild type); higher = more cleavage; co-transcriptional.
Consider U26C A59C, for which the self-cleavage amounted to 0.59.

On to G25C C32G, for which the self-cleavage came out at 0.173. To G25C C32A belongs 0.147; to G25U C29G, 0.161. Next, G25U C29A: 0.198; G25U U46A: 0.105; G25U U46C: 0.179. To G25U U46G belongs 0.205; to G25C U49G, 0.11; to G25C U49A, 0.14. U26C A51C: the self-cleavage came out at 0.972.

Take U26C A51G: the self-cleavage amounted to 0.928. To U26C A51U belongs 0.982. Next, G25A G58A: 0.22; G25A G58U: 0.218. To G25A G58C belongs 0.159; to G25U U26A, 0.273; to G25U U26C, 0.631.

In the case of G25U U36A, the self-cleavage came to 0.125. To G25U U36C belongs 0.103; to G25A U36C, 0.292; to G25A U36A, 0.184. For G25A U36G, the self-cleavage came to 0.176. Consider G25C G31C, for which the self-cleavage turned out to be 0.143. For G25C G31U, the self-cleavage worked out at 0.176. In the case of G25A U64A, the self-cleavage amounted to 0.19.

For the variant G25A U64C, the self-cleavage worked out at 0.14.

G25A U64G: the self-cleavage was 0.185. To G25A G41C belongs 0.172; to G25A G41U, 0.197; to G25C, 0.17. To G25U belongs 0.172; to G25U U62C, 0.193.

With U26C A40C, the self-cleavage is 0.455. Next, U26C A40G: 0.949; U26C A40U: 0.733. Next, G25C G30U: 0.193; G25C G30C: 0.171; G25C G30A: 0.25. Take G25A U61G: the self-cleavage was determined as 0.219. To G25A U61C belongs 0.247; to G25A C54A, 0.203; to G25A C54G, 0.208. Next, U26A A52C: 0.9.

For the variant U26A A52G, the self-cleavage was determined as 0.825. Next, U26A A52U: 0.816. Next, U26A G30A: 0.36; G25C U53G: 0.106. As for G25C U53C, the self-cleavage came to 0.0815. To U26A U67C belongs 0.868; to U26A U67G, 0.858. Next, G25U A40C: 0.183; G25U A40G: 0.114; G25U A40U: 0.208. Regarding U26A C34G, the self-cleavage amounted to 0.501. Next, U26A C34U: 0.93.

U26A C57G: the self-cleavage came out at 0.216. Next, U26A C57U: 0.39; G25C U44A: 0.188. Next, U26A U64G: 0.719. Next, U26A U64A: 0.628. In the case of G25A G65A, the self-cleavage is 0.189. To U26C A42C belongs 1.01. Next, U26C A42U: 0.964. Next, U26A A42C: 0.797; U26A A42G: 0.72. Consider G25C G47A, for which the self-cleavage amounted to 0.102.

In the case of G25C G47C, the self-cleavage came to 0.142. For the variant G25C G47U, the self-cleavage turned out to be 0.213. To G25A C45A belongs 0.208; to G25C A52U, 0.158; to G25C A52G, 0.174. For G25C A52C, the self-cleavage was found to be 0.182. Next, G25U G68C: 0.225; G25U G68U: 0.159; G25A G31U: 0.197. To G25A G31A belongs 0.219.

Consider G25A G31C, for which the self-cleavage was 0.147. Next, G25U G65C: 0.105; U26A C66A: 0.637. To U26A C66G belongs 0.635. To U26A C66U belongs 0.946; to U26A U69G, 0.977. As for U26A U69C, the self-cleavage is 1.04. Next, G25A G37U: 0.199.

As for G25A G37C, the self-cleavage is 0.119.

On to G25A G37A, for which the self-cleavage is 0.187. To G25C C63U belongs 0.136. To G25C U46G belongs 0.192. Next, G25C U46A: 0.18.

In the case of U26A U43C, the self-cleavage turned out to be 0.802. As to U26A U43G, the self-cleavage was determined as 0.707.

With G25U C45U, the self-cleavage came to 0.156. Next, G25U C45A: 0.181; G25A U62C: 0.19; G25A U62A: 0.187.

U26A G28A: the self-cleavage amounted to 0.216.

With U26A G28C, the self-cleavage was found to be 0.114. For the variant G25U G48U, the self-cleavage was 0.155. For the variant G25U G48C, the self-cleavage turned out to be 0.215.

Regarding G25U G48A, the self-cleavage was 0.176.

As to G25A C39A, the self-cleavage was 0.237.

With G25A C39G, the self-cleavage was 0.16. As to G25A C39U, the self-cleavage was 0.229.

In the case of U26A A60G, the self-cleavage is 0.478. With U26A A60U, the self-cleavage was 0.377. In the case of G25C G68U, the self-cleavage came out at 0.21. To G25C G68C belongs 0.18; to G25C G68A, 0.255; to G25A U53G, 0.169. Next, G25A U53C: 0.206.

For the variant G25A U53A, the self-cleavage worked out at 0.171.

As for U26A G41C, the self-cleavage stood at 0.54. Take G25A G47A: the self-cleavage worked out at 0.175.

Turning to G25C G48U, the self-cleavage was 0.186. Take G25C G48A: the self-cleavage was 0.16. To U26A G37A belongs 0.287. With U26A G37C, the self-cleavage came out at 0.209.

With U26A G37U, the self-cleavage amounted to 0.222. Regarding G25C U64A, the self-cleavage is 0.132. To G25C C27G belongs 0.225; to G25C C27U, 0.172; to G25U G58A, 0.214. Next, G25U G58C: 0.107. To G25C U61G belongs 0.176; to G25C C33A, 0.307; to G25C C33U, 0.258. For G25C G41C, the self-cleavage is 0.0934.

G25C G41A: the self-cleavage was determined as 0.123. Next, G25A C66U: 0.244. To G25A C66A belongs 0.196. To G25C C54G belongs 0.162; to G25C C54U, 0.133; to G25C C54A, 0.136.

Turning to U26A U36G, the self-cleavage came out at 0.145.

As to U26A U36C, the self-cleavage was 0.403. Next, U26A U36A: 0.15; G25U C57U: 0.15. To G25U C57A belongs 0.137. To G25U C57G belongs 0.151. Consider G25U U49C, for which the self-cleavage came to 0.157.

As to G25U U49G, the self-cleavage stood at 0.189. To G25A U43G belongs 0.119.

Take G25A U43C: the self-cleavage amounted to 0.288. Next, G25A U43A: 0.154.

For G25C G37A, the self-cleavage stood at 0.171. Next, G25C G37C: 0.156; U26C: 0.993; U26A: 0.907. With U26A C54U, the self-cleavage worked out at 0.909. To G25U U53G belongs 0.226. Next, G25U U53A: 0.166; G25U U53C: 0.112. For U26A U44G, the self-cleavage was 0.85. Next, U26A U44A: 0.843; G25A G68C: 0.195.

With G25A G68A, the self-cleavage was 0.222. Take G25A G68U: the self-cleavage was 0.224. Next, G25C U62G: 0.153. For the variant G25C U62A, the self-cleavage stood at 0.132. As to G25C U62C, the self-cleavage is 0.158. In the case of G25C A42U, the self-cleavage was 0.203. Next, G25C A42C: 0.187; G25C A42G: 0.194. For G25C C57A, the self-cleavage is 0.14. Next, U26A C35U: 0.644. Next, U26A C35A: 0.228.

Values taken from the RNAGym collection of RNA variant scans (doi:10.7554/elife.80360).
